The values that follow come from patent US6429304 (University of California, dated 2002).

First the molecules themselves.
B1: native S. purpuratus katanin p60 subunit (unfertilized egg extract / cytosol) (enzyme)
chain: MSVDEICENTKMGREYALLGNYETSLVYYQGVLQQIQKLLTSVHEPQRKHQWQTIRQELSQEYEHVKNITKTLNGFKSEPAAPEPAPNHRAAPFSHHQHAAKPAAAEPARDPDVWPPPTPVDHRPSPPYQRAARKDPPRRSEPSKPANRAPGNDRGGRGPSDRRGDARSGGGGRGGARGSDKDKNRGGKSDKDKKAPSGEEGDEKKFDPAGYDKDLVENLERDIVQRNPNVHWADIAGLTEAKRLLEEAVVLPLWMPDYFKGIRRPWKGVLMVGPPGTGKTMLAKAVATECGTTFFNVSSASLTSKYHGESEKLVRLLFEMARFYAPSTIFIDEIDSICSKRGTGSEHEASRRVKSELLIQMDGVSGPSAGEESSKMVMVLAATNFPWDIDEALRRRLEKRIYIPLPEIDGREQLLRINLKEVPLADDIDLKSIAEKMDGYSGADITNVCRDASMMAMRRRIQGLRPEEIRHIPKEELNQPSTPADFLLALQKVSKSVGKEDLVKYMAWMEEFGSV
notes: Endogenous protein of sea urchin eggs; also called 60 kDa polypeptide
B2: p80 delta 1-302 (S. purpuratus p80 katanin with the entire WD40 domain deleted), in vitro translated with N-terminal S-Tag (other)
chain: TTGIAQEPQSQPSKTPSGGAEEVPSKPLTASGRKNFVRERPHTTSSKQRQPDVKSEPERQSPTQDEGVKDDDATDIKDPDSYAKIFSPKTRVDHSPERNAQPFPAPLDVPGAQEPEPFKHPPKPAAAAAVAPVSRAPAPSASDWQPAQANPAPNRVPAATKPVPAQEVAPSRKPDPISTIIPSDRNKPANLDMDAFLPPAHAQQAPRVNAPASRKQSDSERIEGLRKGHDSMCQVLSSRHRNLDVVRAIWTAGDAKTSVESVVNMKDQAILVDILNIMLLKKSLWNLDMCVVVLPRLKELLSSKYENYVHTSCACLKLILKNFTSLFNQNIKCPPSGIDITREERYNKCSKCYSYLIATRGYVEEKQHVSGKLGSSFRELHLLLDQLE
notes: the residues kept are derived from the deletion named; also called truncated p80; delta 1-302 derivative of p80; not shown: 37 amino acid N-terminal S-Tag from pCITE-4a+ (Novagen)
B3: baculovirus-expressed S. purpuratus katanin p80 subunit with N-terminal His(6) tag (other)
chain: HHHHHHMATKRAWKLQELVAHSSNVNCLALGPMSGRVMVTGGEDKKVNLWAVGKQNCIISLSGHTSPVDSVKFNSSEELVVAGSQSGTMKIYDLEPAKIVRTLTGHRNSIRCMDFHPFGEFVASGSTDTNVKLWDVRRKGCIYTYKGHSDQVNMIKFSPDGKWLVTASEDTTIKLWDLTMGKLFQEFKNHTGGVTGIEFHPNEFLLASGSSDRTVQFWDLETFQLVSSTSPGASAVRSISFHPDGSYLFCSSQDMLHAFGWEPIRCFDTFSVGWGKVADTVIASTQLIGASFNATNVSVYVADLSRMSTTGIAQEPQSQPSKTPSGGAEEVPSKPLTASGRKNFVRERPHTTSSKQRQPDVKSEPERQSPTQDEGVKDDDATDIKDPDSYAKIFSPKTRVDHSPERNAQPFPAPLDVPGAQEPEPFKHPPKPAAAAAVAPVSRAPAPSASDWQPAQANPAPNRVPAATKPVPAQEVAPSRKPDPISTIIPSDRNKPANLDMDAFLPPAHAQQAPRVNAPASRKQSDSERIEGLRKGHDSMCQVLSSRHRNLDVVRAIWTAGDAKTSVESVVNMKDQAILVDILNIMLLKKSLWNLDMCVVVLPRLKELLSSKYENYVHTSCACLKLILKNFTSLFNQNIKCPPSGIDITREERYNKCSKCYSYLIATRGYVEEKQHVSGKLGSSFRELHLLLDQLE
notes: Expressed from pFastBac HT in Sf9 cells; also called p80 katanin; recombinant p80
B4: baculovirus-expressed S. purpuratus katanin p60 subunit with N-terminal His(6) tag (enzyme)
chain: HHHHHHMSVDEICENTKMGREYALLGNYETSLVYYQGVLQQIQKLLTSVHEPQRKHQWQTIRQELSQEYEHVKNITKTLNGFKSEPAAPEPAPNHRAAPFSHHQHAAKPAAAEPARDPDVWPPPTPVDHRPSPPYQRAARKDPPRRSEPSKPANRAPGNDRGGRGPSDRRGDARSGGGGRGGARGSDKDKNRGGKSDKDKKAPSGEEGDEKKFDPAGYDKDLVENLERDIVQRNPNVHWADIAGLTEAKRLLEEAVVLPLWMPDYFKGIRRPWKGVLMVGPPGTGKTMLAKAVATECGTTFFNVSSASLTSKYHGESEKLVRLLFEMARFYAPSTIFIDEIDSICSKRGTGSEHEASRRVKSELLIQMDGVSGPSAGEESSKMVMVLAATNFPWDIDEALRRRLEKRIYIPLPEIDGREQLLRINLKEVPLADDIDLKSIAEKMDGYSGADITNVCRDASMMAMRRRIQGLRPEEIRHIPKEELNQPSTPADFLLALQKVSKSVGKEDLVKYMAWMEEFGSV
notes: Expressed from pFastBac HT in Sf9 cells; also called p60 katanin; recombinant p60
B5: p80 delta 303-690 (C-terminal truncation of S. purpuratus p80 katanin containing only the WD40 domain), in vitro translated with N-terminal S-Tag (other)
chain: MATKRAWKLQELVAHSSNVNCLALGPMSGRVMVTGGEDKKVNLWAVGKQNCIISLSGHTSPVDSVKFNSSEELVVAGSQSGTMKIYDLEPAKIVRTLTGHRNSIRCMDFHPFGEFVASGSTDTNVKLWDVRRKGCIYTYKGHSDQVNMIKFSPDGKWLVTASEDTTIKLWDLTMGKLFQEFKNHTGGVTGIEFHPNEFLLASGSSDRTVQFWDLETFQLVSSTSPGASAVRSISFHPDGSYLFCSSQDMLHAFGWEPIRCFDTFSVGWGKVADTVIASTQLIGASFNATNVSVYVADLSRMS
notes: the residues kept are derived from the deletion named; also called delta 303-690 derivative of p80; not shown: 37 amino acid N-terminal S-Tag from pCITE-4a+ (Novagen)

In data set [1] the target is T1, native S. purpuratus katanin p80 subunit (sea urchin cytosol) (Strongylocentrotus purpuratus, UniProt O61585 1-690).
T1 construct: Endogenous protein of sea urchin eggs
T1 sequence: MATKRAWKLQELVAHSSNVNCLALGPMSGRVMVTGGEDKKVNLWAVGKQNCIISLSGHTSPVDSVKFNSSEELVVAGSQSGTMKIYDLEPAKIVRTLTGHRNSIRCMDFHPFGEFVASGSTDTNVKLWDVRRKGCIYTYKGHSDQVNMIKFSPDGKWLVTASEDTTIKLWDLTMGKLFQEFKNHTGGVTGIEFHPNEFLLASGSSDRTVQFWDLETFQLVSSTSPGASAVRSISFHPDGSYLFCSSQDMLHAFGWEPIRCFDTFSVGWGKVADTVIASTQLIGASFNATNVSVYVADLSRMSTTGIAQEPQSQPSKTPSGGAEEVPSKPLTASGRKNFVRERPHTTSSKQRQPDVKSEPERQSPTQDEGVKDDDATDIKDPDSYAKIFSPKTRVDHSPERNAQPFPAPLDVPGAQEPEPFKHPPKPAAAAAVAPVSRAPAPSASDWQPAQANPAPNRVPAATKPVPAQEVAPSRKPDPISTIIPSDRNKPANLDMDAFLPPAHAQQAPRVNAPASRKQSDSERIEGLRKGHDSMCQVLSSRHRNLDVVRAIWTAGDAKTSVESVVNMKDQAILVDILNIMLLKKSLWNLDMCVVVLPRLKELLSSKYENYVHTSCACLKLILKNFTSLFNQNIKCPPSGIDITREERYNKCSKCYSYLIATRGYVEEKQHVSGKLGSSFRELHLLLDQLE
Briefly: immunoprecipitation from sea urchin cytosol.

The target in data set [2] is T2, in vitro translated S. purpuratus p60 katanin with 37 amino acid N-terminal S-Tag (Strongylocentrotus purpuratus, UniProt O61577 1-516).
T2 construct: Made in a rabbit reticulocyte coupled transcription-translation reaction; not shown: 37 amino acid N-terminal S-Tag from pCITE-4a+ (Novagen)
Briefly: co-translation in rabbit reticulocyte lysate, co-immunoprecipitation with anti-p60 antibody. The protocol: (§1) In vitro synthesis of proteins directly from plasmid DNAs was accomplished using the Single Tube Protein System 2, T7 (Novagen). […] For immunoprecipitations, lysates were incubated on ice with Pansorbin (Calbiochem)-antibody complexes, washed in NET buffer (50 mM Tris-Cl (pH 7.5), 150 mM NaCl, 0.1% Nonidet P40, 1 mM EDTA (pH 8.0), 0.25% gelatin and 0.02% sodium azide), then resuspended in SDS-PAGE sample buffer. In vitro translation products in both the pellets and supernatants from the immunoprecipitations were resolved by SDS-PAGE, transferred to nitrocellulose, probed with S-protein HRP conjugate (Novagen) and detected by chemiluminescence.

The target of data set [3] is B4. Kind of data set: baculovirus co-expression, metal affinity purification, Coomassie staining. The source says: We therefore sought to express the two subunits together and separately and then test their enzymatic activities.
Data set [4] concerns the molecule itself. Kind of data set: rotary-shadowing electron microscopy of recombinant p60 on mica. The protocol:
Proteins were adsorbed to mica, freeze-dried, and platinum replicated according to established procedures (Heuser (1989) *J. Electron Microsc. Technique* 13):, 244–263; Heuser (1983) *J. Mol. Biol.* 169: 155–195). Sample preparation and imaging were similar to that used in the imaging of NSF (Hanson et al. (1997) *Cell* 90: 523–535), except that mica flakes were washed with a buffer consisting of 10 mM K-HEPES (pH 7.5), 2 mM MgCl_2, 1 mM nucleotide (ATP or ATP-γ-S).

The target of data set [5] is B3. Kind of data set: co-immunoprecipitation from insect cells coinfected with p60 and p80 baculoviruses. How it is done:
Proteins bound to the resin were analyzed by SDS-PAGE followed by staining with Coomassie.
The immunoprecipitations were incubated at 4° C. for 1–2 hr, washed five times with 1 ml of ice-cold TBST, and eluted in SDS-containing sample buffer.

The target in data set [6] is T2, in vitro translated S. purpuratus p60 …. Briefly: co-translation in rabbit reticulocyte lysate, immunoprecipitation with anti-p60 antibody. How it is done: as §1

Take B1: in data set [1], the binding result was “binds”.

Turning to B2, the binding result in data set [2] is “binds”.

As for B3, the “p60:p80 molar ratio in the purified co-expressed protein” value in data set [3] is ~0.9 mol p80 per mol p60.

For the molecule B4, the binding result in data set [4] and in data set [5] was “binds” throughout.

Take B5: the binding result in data set [6] is given as “no binding”.
